According to patent publication US20260347498 (published 2026):
Changes are numbered by the printed parent chain.

Columns and labels:
[1] = target: T1, human EpCAM extracellular domain (human); assay: BLI, 30C, monovalent
T1 chain: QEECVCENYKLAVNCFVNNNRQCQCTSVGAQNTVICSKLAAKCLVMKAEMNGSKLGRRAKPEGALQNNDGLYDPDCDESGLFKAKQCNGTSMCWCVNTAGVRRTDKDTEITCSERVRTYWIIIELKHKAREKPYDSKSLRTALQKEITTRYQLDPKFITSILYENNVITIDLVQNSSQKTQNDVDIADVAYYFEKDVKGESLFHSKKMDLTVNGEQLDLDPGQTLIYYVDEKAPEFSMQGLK

[2] = target: T2, human FcRn (human, UniProt P55899); assay: SPR, pH 6.0
T2 sequence (P55899 24-297, chain 1 of 2): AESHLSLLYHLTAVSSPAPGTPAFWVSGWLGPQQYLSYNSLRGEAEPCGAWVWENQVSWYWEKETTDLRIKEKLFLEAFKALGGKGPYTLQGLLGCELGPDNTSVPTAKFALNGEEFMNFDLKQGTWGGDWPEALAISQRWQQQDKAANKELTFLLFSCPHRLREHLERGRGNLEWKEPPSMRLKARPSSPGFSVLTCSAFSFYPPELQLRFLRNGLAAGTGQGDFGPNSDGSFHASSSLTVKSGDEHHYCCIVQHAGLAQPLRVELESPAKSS
T2 sequence (chain, as listed by the source, chain 2 of 2): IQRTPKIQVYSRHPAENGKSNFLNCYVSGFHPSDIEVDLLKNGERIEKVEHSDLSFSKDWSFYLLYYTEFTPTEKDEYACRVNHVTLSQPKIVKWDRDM

[3] = target: T2, human FcRn; assay: SPR, pH 7.4
[4] = target: FcγRIIIa F158 (human, UniProt P08637); assay: SPR
Chain of FcγRIIIa F158 (P08637 17-208): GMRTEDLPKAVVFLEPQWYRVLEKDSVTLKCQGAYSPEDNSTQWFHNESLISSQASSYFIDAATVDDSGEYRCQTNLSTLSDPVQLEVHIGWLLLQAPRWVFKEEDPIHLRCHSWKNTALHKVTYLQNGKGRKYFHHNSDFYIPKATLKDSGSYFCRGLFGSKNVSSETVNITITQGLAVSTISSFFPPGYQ

[5] = target: T3, FcγRIa (human, UniProt P12314); assay: SPR
T3 chain: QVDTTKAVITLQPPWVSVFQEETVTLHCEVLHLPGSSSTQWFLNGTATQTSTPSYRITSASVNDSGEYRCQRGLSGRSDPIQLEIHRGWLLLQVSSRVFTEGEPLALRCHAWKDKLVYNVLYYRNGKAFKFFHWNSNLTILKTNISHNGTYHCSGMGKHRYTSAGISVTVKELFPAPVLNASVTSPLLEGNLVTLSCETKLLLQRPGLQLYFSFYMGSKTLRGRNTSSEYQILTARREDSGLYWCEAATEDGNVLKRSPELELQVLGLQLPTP

[6] = target: FcγRIIIa V158 (human, UniProt P08637); assay: SPR
Chain of FcγRIIIa V158 (P08637 17-208 F176V): as the sequence (P08637 17-208) above, with F160V counted along it

[7] = target: T4, FcγRIIa R131 (human, UniProt P12318); assay: SPR
T4 chain: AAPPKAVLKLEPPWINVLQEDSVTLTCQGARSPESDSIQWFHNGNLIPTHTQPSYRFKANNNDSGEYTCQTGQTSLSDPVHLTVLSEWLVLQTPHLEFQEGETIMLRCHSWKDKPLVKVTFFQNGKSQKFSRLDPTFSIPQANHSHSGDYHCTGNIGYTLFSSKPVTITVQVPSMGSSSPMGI

[8] = target: T5, FcγRIIb (human, UniProt P31994); assay: SPR
T5 chain: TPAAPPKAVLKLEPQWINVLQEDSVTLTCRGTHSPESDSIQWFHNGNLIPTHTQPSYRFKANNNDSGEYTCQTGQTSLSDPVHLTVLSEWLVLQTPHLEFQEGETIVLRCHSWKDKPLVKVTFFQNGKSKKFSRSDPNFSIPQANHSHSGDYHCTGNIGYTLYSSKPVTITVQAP

[9] = target: T6, FcγRIIa H131 (human, UniProt P12318); assay: SPR
T6 chain: T4 chain with R132H

[10] = target: T7, human EpCAM on DiFi cells (human); assay: FACS, DiFi cells
T7 chain: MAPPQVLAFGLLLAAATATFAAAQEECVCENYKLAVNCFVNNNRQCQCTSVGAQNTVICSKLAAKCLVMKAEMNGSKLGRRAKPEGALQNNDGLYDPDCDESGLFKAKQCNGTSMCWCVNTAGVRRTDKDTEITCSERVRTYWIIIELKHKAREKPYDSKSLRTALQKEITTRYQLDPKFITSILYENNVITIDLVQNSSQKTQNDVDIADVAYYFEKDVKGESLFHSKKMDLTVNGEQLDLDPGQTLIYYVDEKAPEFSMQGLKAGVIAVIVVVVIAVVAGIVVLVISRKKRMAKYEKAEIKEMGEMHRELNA

B1: BisG1-b12-FEAL/EpCAM-A37-FEAR (EpCAM arm) (antibody, V domains shown)
VH: QVQLVQSGAEVKKPGSSVRVSCKASGGTFSSYAISWVRQAPGQGLEWMGGIIPIFGTANYAQKFQGRVTITADESTSTAYMELSSLRSEDTAVYYCARDPFLHYWGQGTLVTVSS
VL: EIELTQSPGTLSLSPGERATLSCRASQTISNNYLAWYQQKRGQAPRLLIYAASSRATGIPDRFSGTGSGTDFTLTISRLEPEDFAVYYCAQGELYPRQFGGGTKLEIK
Q: B1 was tested. Which Kd [1] did it give?
A: 20 nM

B2: IgG1-EpCAM-A37-FERL (antibody)
chain 1: not shown
chain 2: EIELTQSPGTLSLSPGERATLSCRASQTISNNYLAWYQQKRGQAPRLLIYAASSRATGIPDRFSGTGSGTDFTLTISRLEPEDFAVYYCAQGELYPRQFGGGTKLEIKRTVAAPSVFIFPPSDEQLKSGTASVVCLLNNFYPREAKVQWKVDNALQSGNSQESVTEQDSKDSTYSLSSTLTLSKADYEKHKVYACEVTHQGLSSPVTKSFNRGEC
Q: How did the Kd [2] turn out when B2 was run?
A: 230 nM

Q: Does B2 bind [3]?
A: no binding

Q: Does B2 bind [4]?
A: no binding

Q: Does B2 bind [5]?
A: no binding

Q: Does B2 bind [6]?
A: no binding

B3: IgG1-CD137-009-HC7LC2-FEAR (antibody)
chain 1: EVQLVESGGGLVQPGRSLRLSCTASGFSLNDYWMSWVRQAPGKGLEWVGYIDVGGSLYYAASVKGRFTISRDDSKSIAYLQMNSLKTEDTAVYYCARGGLTYGFDLWGQGTLVTVSSASTKGPSVFPLAPSSKSTSGGTAALGCLVKDYFPEPVTVSWNSGALTSGVHTFPAVLQSSGLYSLSSVVTVPSSSLGTQTYICNVNHKPSNTKVDKRVEPKSCDKTHTCPPCPAPEFEGGPSVFLFPPKPKDTLMISRTPEVTCVVVAVSHEDPEVKFNWYVDGVEVHNAKTKPREEQYNSTYRVVSVLTVLHQDWLNGKEYKCKVSNKALPAPIEKTISKAKGQPREPQVYTLPPSREEMTKNQVSLTCLVKGFYPSDIAVEWESNGQPENNYKTTPPVLDSDGSFFLYSRLTVDKSRWQQGNVFSCSVMHEALHNHYTQKSLSLSPG
chain 2: DIVMTQSPSSLSASVGDRVTITCQASEDISSYLAWYQQKPGKAPKRLIYGASDLASGVPSRFSASGSGTDYTFTISSLQPEDIATYYCHYYATISGLGVAFGGGTKVEIKRTVAAPSVFIFPPSDEQLKSGTASVVCLLNNFYPREAKVQWKVDNALQSGNSQESVTEQDSKDSTYSLSSTLTLSKADYEKHKVYACEVTHQGLSSPVTKSFNRGEC
Q: How did the Kd [2] turn out when B3 was run?
A: 375 nM

Q: Does B3 bind [3]?
A: no binding

Q: Does B3 bind [7]?
A: no binding

Q: Does B3 bind [4]?
A: no binding

Q: Does B3 bind [5]?
A: no binding

Q: Does B3 bind [6]?
A: no binding

Q: Does B3 bind [8]?
A: no binding

Q: Does B3 bind [9]?
A: no binding

B4: bsIgG1-b12-FERL/b12-FEAR (antibody)
chain 1: QVQLVQSGAEVKKPGASVKVSCQASGYRFSNFVIHWVRQAPGQRFEWMGWINPYNGNKEFSAKFQDRVTFTADTSANTAYMELRSLRSADTAVYYCARVGPYSWDDSPQDNYYMDVWGKGTTVIVSSASTKGPSVFPLAPSSKSTSGGTAALGCLVKDYFPEPVTVSWNSGALTSGVHTFPAVLQSSGLYSLSSVVTVPSSSLGTQTYICNVNHKPSNTKVDKRVEPKSCDKTHTCPPCPAPEFERGPSVFLFPPKPKDTLMISRTPEVTCVVVDVSHEDPEVKFNWYVDGVEVHNAKTKPREEQYNSTYRVVSVLTVLHQDWLNGKEYKCKVSNKALPAPIEKTISKAKGQPREPQVYTLPPSREEMTKNQVSLTCLVKGFYPSDIAVEWESNGQPENNYKTTPPVLDSDGSFLLYSKLTVDKSRWQQGNVFSCSVMHEALHNHYTQKSLSLSPG
chain 2: EIVLTQSPGTLSLSPGERATFSCRSSHSIRSRRVAWYQHKPGQAPRLVIHGVSNRASGISDRFSGSGSGTDFTLTITRVEPEDFALYYCQVYGASSYTFGQGTKLERKRTVAAPSVFIFPPSDEQLKSGTASVVCLLNNFYPREAKVQWKVDNALQSGNSQESVTEQDSKDSTYSLSSTLTLSKADYEKHKVYACEVTHQGLSSPVTKSFNRGEC
chain 3: B4 chain 1 with R246G, D275A, L415F, K419R
chain 4: B4 chain 2
Q: Does B4 bind [10]?
A: no binding

B5: bsIgG1-b12-FERL/CD137-009-HC7LC2-FEAR (antibody)
chain 1: B4 chain 1
chain 2: B4 chain 2
chain 3: B3 chain 1
chain 4: B3 chain 2
Q: Does B5 bind [10]?
A: no binding

B6: BisG2amm-EpCAM-323-A3-AALT/m4-1BB-3H3-AAKR (EpCAM arm) (antibody, V domains shown)
VH: QIQLVQSGPELKKPGETVKISCKASGYTFTNYGMNWVRQASGEGLKWMGWINTYTGEPTYGEDFKGRFAFSLETSASTAYLQINNLKNEDTATYFCARFGNYVDYWGQGTTLTVSS
VL: DIVMTQAAFSNPVTLGTSASISCRSSKNLLHSNGITYLYWYLQKPGQSPHLLIYQMSNLASGVPDRFSSSGSGTDFTLRISRVEAEDVGVYYCAQNLEIPRTFGGGTKLEIKR
Q: For B6, which Kd [1] is on record?
A: 3.2 nM
